# Assay results: US20240016901A1, “COMPOSITIONS AND METHODS FOR PREVENTING AND TREATING SARS-COV-2 INFECTION” (priority 2020, published 2024)
# B1: Lacto ferrin: a protein found in milk and other secretory fluids; diet supplement (protein, UniProt P24627 20-708, looked up)
# Lactotransferrin: APRKNVRWCTISQPEWFKCRRWQWRMKKLGAPSITCVRRAFALECIRAIAEKKADAVTLDGGMVFEAGRDPYKLRPVAAEIYGTKESPQTHYYAVAVVKKGSNFQLDQLQGRKSCHTGLGRSAGWIIPMGILRPYLSWTESLEPLQGAVAKFFSASCVPCIDRQAYPNLCQLCKGEGENQCACSSREPYFGYSGAFKCLQDGAGDVAFVKETTVFENLPEKADRDQYELLCLNNSRAPVDAFKECHLAQVPSHAVVARSVDGKEDLIWKLLSKAQEKFGKNKSRSFQLFGSPPGQRDLLFKDSALGFLRIPSKVDSALYLGSRYLTTLKNLRETAEEVKARYTRVVWCAVGPEEQKKCQQWSQQSGQNVTCATASTTDDCIVLVLKGEADALNLDGGYIYTAGKCGLVPVLAENRKSSKHSSLDCVLRPTEGYLAVAVVKKANEGLTWNSLKDKKSCHTAVDRTAGWNIPMGLIVNQTGSCAFDEFFSQSCAPGADPKSRLCALCAGDDQGLDKCVPNSKEKYYGYTGAFRCLAEDVGDVAFVKNDTVWENTNGESTADWAKNLNREDFRLLCLDGTRKPVTEAQSCHLAVAPNHAVVSRSDRAAHVKQVLLHQQALFGKNGKNCPDKFCLFKSETKNLLFNDNTECLAKLGGRPTYEEYLGTEYVTAIANLKKCSTSPLLEACAFLTR
# B2: apolactoferrin: apolactoferrin (Jarrow Formulas, 121011); component of dietary supplements (protein, UniProt P24627 20-708, looked up)
# Lactotransferrin: B1 Lactotransferrin
# modifications: iron-free apo form
# notes: apolactoferrin (Jarrow Formulas, 121011); component of dietary supplements
# B3: Hololactoferrin: Hololactoferrin (Sigma Aldrich, L4765) (protein, UniProt P02788 20-710, looked up)
# Lactotransferrin: GRRRSVQWCAVSQPEATKCFQWQRNMRKVRGPPVSCIKRDSPIQCIQAIAENRADAVTLDGGFIYEAGLAPYKLRPVAAEVYGTERQPRTHYYAVAVVKKGGSFQLNELQGLKSCHTGLRRTAGWNVPIGTLRPFLNWTGPPEPIEAAVARFFSASCVPGADKGQFPNLCRLCAGTGENKCAFSSQEPYFSYSGAFKCLRDGAGDVAFIRESTVFEDLSDEAERDEYELLCPDNTRKPVDKFKDCHLARVPSHAVVARSVNGKEDAIWNLLRQAQEKFGKDKSPKFQLFGSPSGQKDLLFKDSAIGFSRVPPRIDSGLYLGSGYFTAIQNLRKSEEEVAARRARVVWCAVGEQELRKCNQWSGLSEGSVTCSSASTTEDCIALVLKGEADAMSLDGGYVYTAGKCGLVPVLAENYKSQQSSDPDPNCVDRPVEGYLAVAVVRRSDTSLTWNSVKGKKSCHTAVDRTAGWNIPMGLLFNQTGSCKFDEYFSQSCAPGSDPRSNLCALCIGDEQGENKCVPNSNERYYGYTGAFRCLAENAGDVAFVKDVTVLQNTDGNNNEAWAKDLKLADFALLCLDGKRKPVTEARSCHLAMAPNHAVVSRMDKVERLKQVLLHQQAKFGRNGSDCPDKFCLFQSETKNLLFNDNTECLARLHGKTTYEKYLGPQYVAGITNLKKCSTSPLLEACEFLRK
# modifications: iron-saturated holo form
# Key:
# SARS-CoV-2 [1] = format: cell-based, SARS-CoV-2 WA1; details: Huh-7 cells, MOI 0.2, 48 hrs p.i., FIG. 6C
# [2] = test system: IFNβ, ISG15, MX1, Viperin and IFITM3; test: qPCR of IFNβ and interferon-stimulated gene mRNA in Huh-7 cells; format: cell-based, human; details: lactoferrin-treated Huh-7 cells, FIG. 6D
# SARS-CoV-2 [3] = test: microbe, parasite or virus in culture; format: cell-based; details: Huh-7 cells; for anti-SARS-CoV-2 activity, percentage of infected Huh-7 cells: protein at 2.3 μM, FIG. 6E
# SARS-CoV-2 [4] = format: cell-based, SARS-CoV-2 WA1; details: iAECs, pretreatment 1.15 μM, MOI 10
Molecule,viral replication (viral genome copies) (SARS-CoV-2 [1]),"mRNA levels of IFNβ and interferon-stimulated genes ISG15, MX1, Viperin and IFITM3 [2]",antiviral activity against SARS-CoV-2 (in words) (SARS-CoV-2 [3]),"antiviral activity when added after infection (SARS-CoV-2 [3]; 2.3 μM added 1 or 24 hrs p.i., MOI 1, 5 and 10, FIG. 6B)","EC50 (SARS-CoV-2 [3]; MOI 0.2, 10-point two-fold dilution dose response in triplicate) [nM]","potentiation of efficacy in combination with remdesivir (SARS-CoV-2 [3]; MOI 0.2, FIG. 6G, FIG. 7A)","potentiation of efficacy in combination with hydroxychloroquine (SARS-CoV-2 [3]; MOI 10, FIG. 6H, FIG. 7B)",IC50 (SARS-CoV-2 [3]; read-out: IC50 against SARS-CoV-2 infection) [nM],reduction in the proportion of SARS-CoV-2 infected cells (SARS-CoV-2 [4]),"anti-SARS-CoV-2 activity, percentage of infected Huh-7 cells (SARS-CoV-2 [3])"
B1,dose-dependent reduction of viral replication,elevated,dose-dependent (3 nM-2.3 μM) and MOI-dependent (0.2-10) antiviral activity,retains antiviral activity,308,potentiates the efficacy,potentiates the efficacy,308,two-fold reduction,
B2,,,,,,,,,,robust antiviral effect
B3,,,,,,,,,,robust antiviral effect
